Data set [1] concerns the target VosA_(1–190) dead, quadruple mutant of VosA with the mutations K37A, K39A, R41A, and K42A (A. nidulans). Put plainly: SEC-MALS; size exclusion chromatography and subsequent mass determination using MALS.
Data set [2] has as its target VosA_(1–190), minimal velvet domain of VosA encompassing residues 1–190 (A. nidulans). Put plainly: SEC; Superdex 200 (16/60) gel filtration column; elution volumes compared. Background: Size exclusion chromatography separates by hydrodynamic size, large species first.
Data set [3] shares this target. The data set is described as follows: SEC-MALS; size exclusion chromatography and subsequent mass determination using MALS.
The target in a further data set is T1, VosA full-length (Aspergillus nidulans, UniProt Q5BBX1 1-430).
T1 sequence: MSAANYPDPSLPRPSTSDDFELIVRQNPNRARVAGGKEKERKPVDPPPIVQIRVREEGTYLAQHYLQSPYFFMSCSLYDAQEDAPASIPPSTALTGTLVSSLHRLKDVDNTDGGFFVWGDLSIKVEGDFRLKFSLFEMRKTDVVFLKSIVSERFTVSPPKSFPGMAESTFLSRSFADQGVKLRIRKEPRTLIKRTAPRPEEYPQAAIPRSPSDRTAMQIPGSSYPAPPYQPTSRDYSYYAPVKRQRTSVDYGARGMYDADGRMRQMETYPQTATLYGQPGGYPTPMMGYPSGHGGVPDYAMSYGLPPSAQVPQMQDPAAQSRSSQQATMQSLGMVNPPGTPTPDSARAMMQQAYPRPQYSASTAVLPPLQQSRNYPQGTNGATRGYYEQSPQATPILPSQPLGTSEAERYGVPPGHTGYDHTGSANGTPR
Put plainly: EMSA; EMSA: 10 mM HEPES/NaOH pH 7.4, 150 mM NaCl, ~53 pmol DNA in 10 ul, RT 15 min; DNA:protein molar ratios 1:0.3 to 1:9; 6% PAGE, 0.5% TBE, ethidium bromide. As to conditions: protein: recombinant; tags: GST (N-terminal, pGEX-5X-1); chain copies: 2; blunt. (In general: In EMSA bound probe runs differently from free probe, usually more slowly.)

Another data set deals with T2, VosA_N (Aspergillus nidulans, UniProt Q5BBX1 1-216).
T2 sequence: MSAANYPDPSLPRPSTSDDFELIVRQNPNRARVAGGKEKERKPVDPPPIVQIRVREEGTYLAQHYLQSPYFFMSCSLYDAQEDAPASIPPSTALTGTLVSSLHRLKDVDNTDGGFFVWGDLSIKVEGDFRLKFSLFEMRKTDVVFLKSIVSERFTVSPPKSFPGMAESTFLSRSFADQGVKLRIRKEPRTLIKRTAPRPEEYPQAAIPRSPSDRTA
The data set is described as above. As to conditions: protein: recombinant; tags: GST (N-terminal, pGEX-4T-3); chain copies: 2; blunt.

A further data set concerns the target VelB (Aspergillus nidulans, UniProt C8VTS4 1-369). Described as above. As to conditions: protein: recombinant; tags: His6 (C-terminal); blunt.
The target in a further data set is T3, VosA1-190 (VosA_cryst) (Aspergillus nidulans, UniProt Q5BBX1 1-190).
T3 sequence: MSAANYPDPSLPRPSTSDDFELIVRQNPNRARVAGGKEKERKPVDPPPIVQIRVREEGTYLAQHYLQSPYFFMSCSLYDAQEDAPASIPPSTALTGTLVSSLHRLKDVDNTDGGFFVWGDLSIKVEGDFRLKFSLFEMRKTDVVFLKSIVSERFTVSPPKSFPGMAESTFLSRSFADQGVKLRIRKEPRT
The data set is described as follows: EMSA; weaker than VosA_N; EMSA: 10 mM HEPES/NaOH pH 7.4, 150 mM NaCl, ~53 pmol DNA in 10 ul, RT 15 min; DNA:protein molar ratios 1:0.3 to 1:9; 6% PAGE, 0.5% TBE, ethidium bromide. As to conditions: protein: recombinant; tags: Strep-tag (C-terminal); chain copies: 2; blunt.

The target of another data set is T4, VeA1-224 (Aspergillus nidulans, UniProt C8VTV4 1-224).
T4 sequence: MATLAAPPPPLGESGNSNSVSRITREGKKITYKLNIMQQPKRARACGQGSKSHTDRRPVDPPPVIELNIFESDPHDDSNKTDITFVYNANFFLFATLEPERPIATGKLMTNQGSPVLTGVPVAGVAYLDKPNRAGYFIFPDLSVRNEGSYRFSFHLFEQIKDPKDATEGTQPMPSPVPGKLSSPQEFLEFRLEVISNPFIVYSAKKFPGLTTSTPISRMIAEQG
Put plainly: EMSA; binds as well as VosA1-190; EMSA: 10 mM HEPES/NaOH pH 7.4, 150 mM NaCl, ~53 pmol DNA in 10 ul, RT 15 min; DNA:protein molar ratios 1:0.3 to 1:9; 6% PAGE, 0.5% TBE, ethidium bromide. As to conditions: protein: recombinant; tags: Strep-tag (C-terminal); blunt.

These results are taken from publication PMC3876986, “The Velvet Family of Fungal Regulators Contains a DNA-Binding Domain Structurally Similar to NF-κB”.

Chain of VelB (C8VTS4 whole entry): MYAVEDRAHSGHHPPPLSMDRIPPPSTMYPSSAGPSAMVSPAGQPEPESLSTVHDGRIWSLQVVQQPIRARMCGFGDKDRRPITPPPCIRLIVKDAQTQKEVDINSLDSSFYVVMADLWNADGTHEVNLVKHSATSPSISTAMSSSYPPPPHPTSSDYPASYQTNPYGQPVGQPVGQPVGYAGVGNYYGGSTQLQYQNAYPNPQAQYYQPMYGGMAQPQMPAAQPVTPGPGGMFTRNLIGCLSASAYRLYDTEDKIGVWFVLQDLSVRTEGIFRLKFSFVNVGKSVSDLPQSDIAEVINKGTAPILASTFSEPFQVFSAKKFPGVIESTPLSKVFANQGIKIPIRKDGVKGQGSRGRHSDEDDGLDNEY

The stoichiometry N is the number of molecules, sites or subunits per partner or assembly. In data set [1], “VosA_(1–190) dead, quadruple mutant of VosA with the mutations K37A, K39A, R41A, and K42A (domain or fragment)” registered a stoichiometry N of 2.
Take “VosA_(1–190), minimal velvet domain of VosA encompassing residues 1–190 (domain or fragment)”: the stoichiometry N in data set [2] and in data set [3] was 2 each time.

B1: brlA 35 bp probe (OHS301/302) (dsDNA)
DNA 1: ATTCGGCGACTAGGATCTTACTGGCCGCGGCCGAG
DNA 2: CTCGGCCGCGGCCAGTAAGATCCTAGTCGCCGAAT
For the molecule B1, the binding result is listed as “binds” in the data set with VosA full-length; “binds” with VosA_N; “no binding” in the data set with VelB; “binds” with VosA1-190 (VosA_cryst); “binds” in the data set with VeA1-224.
